From paper PMC10873347
One block for each substance: values may come before it.

Molecular target: actin (pyrene-labeled filaments)
Test: pyrene-actin fluorescence quenching titration
Settings: sites S3

Sequence of human cofilin-1 (from UniProt P23528) cofilin S3D,G4F (P23528 whole entry, looked up, stated change not applied): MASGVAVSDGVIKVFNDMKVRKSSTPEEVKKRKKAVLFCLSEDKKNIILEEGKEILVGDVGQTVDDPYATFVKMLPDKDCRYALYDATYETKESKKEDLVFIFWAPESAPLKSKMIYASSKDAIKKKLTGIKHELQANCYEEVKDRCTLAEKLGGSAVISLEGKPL
Sequence of human cofilin-1 (from UniProt P23528) cofilin S3D (P23528 whole entry, looked up, stated change not applied): as above
Sequence of human cofilin-1 (from UniProt P23528) cofilin S3D,G4L (P23528 whole entry, looked up, stated change not applied): as above

- other: K0.5 (reference: cofilin WT): weaker; reference 0.61
Substance: human cofilin-1 (from UniProt P23528) cofilin S3D

- other: K0.5 (reference: cofilin G4F): same; reference 1.0
Substance: human cofilin-1 (from UniProt P23528) cofilin S3D,G4F

- other: K0.5 (reference: cofilin G4L): same; reference 0.59
Substance: human cofilin-1 (from UniProt P23528) cofilin S3D,G4L
